Patent publication US20220135638A1 (Takeda / Millennium, published 2022)
Numbered stars: 1 amine (or outer) side, 2 acyl side, 3 side chain; on linkers, the order of the positions; unused ones are H or OH. Square brackets hold non-standard residues; d marks the D form. Primed or numbered codes have the meaning given here. Side chains are listed from the residue outwards. Ends that are not written are not given here. * marks the point of attachment. C20 diacid = O=C(O)CCCCCCCCCCCCCCCCCCC(=O)*; C16 diacid = O=C(O)CCCCCCCCCCCCCCC(=O)*; γGlu = O=C(O)[C@H](CCC(=O)[*:2])N[*:1]; Iva = CC[C@](C)(N)C(=O)O; PEG3′ = not defined here; Aib = CC(C)(N)C(=O)O

T1: full-length human GIPR (GenBank NM_000164) with an N-terminal FLAG tag on HEK-293T cells (human), P48546
T1 chain: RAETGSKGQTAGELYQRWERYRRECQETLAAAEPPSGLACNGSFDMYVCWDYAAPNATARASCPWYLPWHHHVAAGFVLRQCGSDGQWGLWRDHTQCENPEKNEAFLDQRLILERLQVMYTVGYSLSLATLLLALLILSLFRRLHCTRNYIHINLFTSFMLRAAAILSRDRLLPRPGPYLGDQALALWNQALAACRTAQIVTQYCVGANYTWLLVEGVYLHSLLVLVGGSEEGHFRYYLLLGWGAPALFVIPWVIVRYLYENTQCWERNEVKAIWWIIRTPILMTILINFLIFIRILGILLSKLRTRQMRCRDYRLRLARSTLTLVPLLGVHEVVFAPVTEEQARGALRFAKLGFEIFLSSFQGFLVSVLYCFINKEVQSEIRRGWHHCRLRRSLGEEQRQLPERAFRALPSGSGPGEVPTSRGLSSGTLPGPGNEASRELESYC

T2: full-length human GLP-1R (GenBank NM_002062) with an N-terminal FLAG tag on HEK-293T cells (human), P43220
T2 chain: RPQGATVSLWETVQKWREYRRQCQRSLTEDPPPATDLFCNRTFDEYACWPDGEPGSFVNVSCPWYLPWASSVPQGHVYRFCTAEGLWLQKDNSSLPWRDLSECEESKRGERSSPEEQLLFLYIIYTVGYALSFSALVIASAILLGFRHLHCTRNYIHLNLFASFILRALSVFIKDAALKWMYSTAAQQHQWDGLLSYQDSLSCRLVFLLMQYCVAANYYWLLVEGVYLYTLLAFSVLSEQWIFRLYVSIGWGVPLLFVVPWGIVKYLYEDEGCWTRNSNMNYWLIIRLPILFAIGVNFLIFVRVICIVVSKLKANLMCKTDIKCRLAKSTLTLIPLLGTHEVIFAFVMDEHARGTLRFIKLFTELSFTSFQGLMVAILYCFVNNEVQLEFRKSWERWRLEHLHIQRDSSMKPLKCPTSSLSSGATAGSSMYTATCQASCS


Target: T1, full-length human GIPR (GenBank …)
Assay: cell-based or functional assay

| Binder | GIP EC50(pM) |
| --- | --- |
| Y[Aib]EGTFISDYSIALDR[Aib]HQ[Aib]NFVNW[Iva]LAQRPSSGAPPK([PEG3′-PEG3′-γGlu-C20 diacid])S (ends and bridges not checked) [Compound No. 478] | 1.36 |
| Y[Aib]EGTFISDYSIALDR[Aib]HQ[Aib]NFVNW[Iva]LAQRPSSGK([PEG3′-PEG3′-γGlu-Ida])PPPS (ends and bridges not checked) [Compound No. 498] | 0.6 |
| Y[Aib]EGTFISDYSIALDR[Aib]HQ[Aib]NFVNW[Iva]LAQRPK([PEG3′-PEG3′-γGlu-C16 diacid])SGAPPPS (ends and bridges not checked) [Compound No. 488] | 0.75 |
| Y[Aib]EGTFISDYSIALDR[Aib]HQ[Aib]NFVNW[Iva]LAQRPSSGAPPPK([PEG3′-PEG3′-γGlu-C20 diacid]) (ends and bridges not checked) [Compound No. 481] | 0.61 |
| Y[Aib]EGTFISDYSIALDR[Aib]HQ[Aib]NFVNW[Iva]LAQRPK([PEG3′-PEG3′-γGlu-Ida])SGAPPPS (ends and bridges not checked) [Compound No. 489] | 0.96 |
| Y[Aib]EGTFISDYSIALDR[Aib]HQ[Aib]NFVNW[Iva]LAQRPSSGAPPPK([PEG3′-PEG3′-γGlu-C16 diacid]) (ends and bridges not checked) [Compound No. 479] | 0.42 |
| Y[Aib]EGTFISDYSIALDR[Aib]HQ[Aib]NFVNW[Iva]LAQRPSSGK([PEG3′-PEG3′-γGlu-C16 diacid])PPPS (ends and bridges not checked) [Compound No. 497] | 0.4 |
| Y[Aib]EGTFISDYSIALDR[Aib]HQ[Aib]NFVNW[Iva]LAQRPSSGAPK([PEG3′-PEG3′-γGlu-C16 diacid])PS (ends and bridges not checked) [Compound No. 503] | 0.49 |
| Y[Aib]EGTFISDYSIALDR[Aib]HQ[Aib]NFVNW[Iva]LAQRKSSGAPPPS (not fully specified (residue 31); ends and bridges not checked) [Compound No. 469] | 0.62 |
| Y[Aib]EGTFISDYSIALDR[Aib]HQ[Aib]NFVNW[Iva]LAQRK([PEG3′-PEG3′-γGlu-Ida])SSGAPPPS (ends and bridges not checked) [Compound No. 486] | 0.7 |
| Y[Aib]EGTFISDYSIALDR[Aib]HQ[Aib]NFVNW[Iva]LAQRPSK([PEG3′-PEG3′-γGlu-Ida])GAPPPS (ends and bridges not checked) [Compound No. 492] | 1.22 |
| Y[Aib]EGTFISDYSIALDR[Aib]HQ[Aib]NFVNW[Iva]LAQRPK([PEG3′-PEG3′-γGlu-C20 diacid])SGAPPPS (ends and bridges not checked) [Compound No. 490] | 1.88 |
| Y[Aib]EGTFISDYSIALDR[Aib]HQ[Aib]NFVNW[Iva]LAQRPSK([PEG3′-PEG3′-γGlu-C20 diacid])GAPPPS (ends and bridges not checked) [Compound No. 493] | 1.22 |
| Y[Aib]EGTFISDYSIALDR[Aib]HQ[Aib]NFVNW[Iva]LAQRPSSGAPPK([PEG3′-PEG3′-γGlu-Ida])S (ends and bridges not checked) [Compound No. 477] | 0.64 |

Target: T2, full-length human GLP-1R (GenBank …)
Assay: cell-based or functional assay

| Binder | GLP EC50 [µM] |
| --- | --- |
| Y[Aib]EGTFISDYSIALDR[Aib]HQ[Aib]NFVNW[Iva]LAQRPSSGAPPK([PEG3′-PEG3′-γGlu-C20 diacid])S (ends and bridges not checked) [Compound No. 478] | > 1 |
| Y[Aib]EGTFISDYSIALDR[Aib]HQ[Aib]NFVNW[Iva]LAQRPSSGK([PEG3′-PEG3′-γGlu-Ida])PPPS (ends and bridges not checked) [Compound No. 498] | > 1 |
| Y[Aib]EGTFISDYSIALDR[Aib]HQ[Aib]NFVNW[Iva]LAQRPK([PEG3′-PEG3′-γGlu-C16 diacid])SGAPPPS (ends and bridges not checked) [Compound No. 488] | > 1 |
| Y[Aib]EGTFISDYSIALDR[Aib]HQ[Aib]NFVNW[Iva]LAQRPSSGAPPPK([PEG3′-PEG3′-γGlu-C20 diacid]) (ends and bridges not checked) [Compound No. 481] | > 1 |
| Y[Aib]EGTFISDYSIALDR[Aib]HQ[Aib]NFVNW[Iva]LAQRPK([PEG3′-PEG3′-γGlu-Ida])SGAPPPS (ends and bridges not checked) [Compound No. 489] | > 1 |
| Y[Aib]EGTFISDYSIALDR[Aib]HQ[Aib]NFVNW[Iva]LAQRPSSGAPPPK([PEG3′-PEG3′-γGlu-C16 diacid]) (ends and bridges not checked) [Compound No. 479] | > 1 |
| Y[Aib]EGTFISDYSIALDR[Aib]HQ[Aib]NFVNW[Iva]LAQRPSSGK([PEG3′-PEG3′-γGlu-C16 diacid])PPPS (ends and bridges not checked) [Compound No. 497] | > 1 |
| Y[Aib]EGTFISDYSIALDR[Aib]HQ[Aib]NFVNW[Iva]LAQRPSSGAPK([PEG3′-PEG3′-γGlu-C16 diacid])PS (ends and bridges not checked) [Compound No. 503] | > 1 |
| Y[Aib]EGTFISDYSIALDR[Aib]HQ[Aib]NFVNW[Iva]LAQRKSSGAPPPS (not fully specified (residue 31); ends and bridges not checked) [Compound No. 469] | > 1 |
| Y[Aib]EGTFISDYSIALDR[Aib]HQ[Aib]NFVNW[Iva]LAQRK([PEG3′-PEG3′-γGlu-Ida])SSGAPPPS (ends and bridges not checked) [Compound No. 486] | > 1 |
| Y[Aib]EGTFISDYSIALDR[Aib]HQ[Aib]NFVNW[Iva]LAQRPSK([PEG3′-PEG3′-γGlu-Ida])GAPPPS (ends and bridges not checked) [Compound No. 492] | > 1 |
| Y[Aib]EGTFISDYSIALDR[Aib]HQ[Aib]NFVNW[Iva]LAQRPK([PEG3′-PEG3′-γGlu-C20 diacid])SGAPPPS (ends and bridges not checked) [Compound No. 490] | > 1 |
| Y[Aib]EGTFISDYSIALDR[Aib]HQ[Aib]NFVNW[Iva]LAQRPSK([PEG3′-PEG3′-γGlu-C20 diacid])GAPPPS (ends and bridges not checked) [Compound No. 493] | > 1 |
| Y[Aib]EGTFISDYSIALDR[Aib]HQ[Aib]NFVNW[Iva]LAQRPSSGAPPK([PEG3′-PEG3′-γGlu-Ida])S (ends and bridges not checked) [Compound No. 477] | > 1 |
